Assay [1] concerns the target T1, recombinant extracellular domain (ECD) of the human prolactin receptor (PRLR) (human, UniProt P16471 25-234).
T1 construct: also called PRLR ECD; Human PRLR; not shown: His tag
T1 sequence: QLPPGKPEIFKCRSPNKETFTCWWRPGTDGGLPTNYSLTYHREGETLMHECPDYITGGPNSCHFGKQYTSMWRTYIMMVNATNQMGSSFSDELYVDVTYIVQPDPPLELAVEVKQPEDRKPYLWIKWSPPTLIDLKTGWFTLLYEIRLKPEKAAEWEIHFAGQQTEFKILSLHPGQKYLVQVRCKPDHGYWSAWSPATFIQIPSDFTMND
The assay can be described thus: Biacore SPR, antibody captured on Protein A/G, kinetic titration of PRLR ECD, 1:1 Langmuir. As for the experimental part: (§1) Affinity of the chimerized and Human Engineered™ antibodies determined by Biacore analysis. Briefly, a CM5 sensor chip (Biacore) immobilized with Protein A/G (Pierce) via NHS/EDC was used to capture approximately 600 RU of antibody on the chip surface. Five concentrations of PRLR ECD beginning at 5 ug/mL (185 nM) and serially diluted at 5× dilution to 0.3 nM were injected from lowest to highest concentration in the kinetic titration injection mode, and 15 minutes of dissociation data was collected. The experiments were double-referenced, i.e. an adjacent flow cell response was subtracted automatically, and the response from a buffer injection experiment was subtracted from the experimental data set. Kinetic and derived parameters (kₐ, kd and KD) were determined by fitting to a 1:1 Langmuir model using BiaEval software customized to the kinetic titration injection mode. Affinity measurements of both chimeric and all Human Engineered™ antibodies against human and cynomolgus PRLR ECD are summarized in Table 9 and Table 10.
(In general: In SPR one partner is held on a chip, and binding of the other changes the refractive index at the surface.)

The target in assay [2] is T2, cynomolgus PRLR ECD (cynomolgus, UniProt A0A2K5WXK1 25-234).
T2 construct: extracellular domain; also called Cyno PRLR
T2 sequence: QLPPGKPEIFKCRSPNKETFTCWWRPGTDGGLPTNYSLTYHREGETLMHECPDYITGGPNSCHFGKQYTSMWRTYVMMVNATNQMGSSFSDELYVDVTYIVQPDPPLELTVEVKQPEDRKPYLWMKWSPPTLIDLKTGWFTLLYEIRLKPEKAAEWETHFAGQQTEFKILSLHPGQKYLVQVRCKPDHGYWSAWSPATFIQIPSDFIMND
The assay is described as above. As for the experimental part:
as §1

A further assay concerns the target T3, rat PRLR ECD (rat, UniProt P05710 20-229).
T3 construct: extracellular domain
T3 sequence (looked up): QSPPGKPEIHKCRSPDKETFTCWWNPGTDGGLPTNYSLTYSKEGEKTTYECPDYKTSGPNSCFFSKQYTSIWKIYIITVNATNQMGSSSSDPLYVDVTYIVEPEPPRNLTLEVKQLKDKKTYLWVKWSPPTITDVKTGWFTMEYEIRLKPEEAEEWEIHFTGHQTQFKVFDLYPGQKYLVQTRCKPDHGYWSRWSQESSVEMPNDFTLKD
The assay can be described thus: Biacore SPR, antibody covalently immobilized on CM4 chip. As for the experimental part:
(§2) In order to compare rat and mouse cross reactivity using covalently immobilized antibodies, a CM4 chip was coupled with he.06.642-2 and he.06.275-4 antibodies via standard EDC-NHS amine coupling chemistries according to the recommended protocol from Biacore® Inc. The PRLR ECD injections were performed at five concentrations in a three fold titration series starting at 111 nM and going down to 1.37 nM. Regeneration was performed with Glycine pH3.0. The affinity of all of the HE variants of XHA.06.642 and XHA.06.275 are very similar to the affinity of the parental chimeric antibody. Antibody he.06.642-2 binds to human, mouse and rat PRLR with equivalent affinity.

Assay [3] deals with T4, murine PRLR ECD (mouse, UniProt Q08501 20-229).
T4 construct: extracellular domain; also called Mouse PRLR
T4 sequence (looked up): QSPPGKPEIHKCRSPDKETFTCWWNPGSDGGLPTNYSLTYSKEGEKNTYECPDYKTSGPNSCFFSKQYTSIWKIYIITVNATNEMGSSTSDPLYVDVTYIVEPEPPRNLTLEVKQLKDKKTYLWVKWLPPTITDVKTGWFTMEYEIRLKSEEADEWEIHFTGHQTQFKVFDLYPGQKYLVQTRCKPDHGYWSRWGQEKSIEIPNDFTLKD
The assay can be described thus: Biacore SPR, antibody covalently immobilized on CM4 chip, PRLR ECD 111 to 1.37 nM; same run as N2: KD about 17.6 uM, far above the top concentration of 111 nM, which the text calls not binding effectively. As for the experimental part: as §2

Assay [4] concerns the target T4, murine PRLR ECD. The assay is described as follows: Biacore SPR, antibody covalently immobilized on CM4 chip, PRLR ECD 111 to 1.37 nM; same run as N2: antibody covalently immobilized on CM4, PRLR ECD 111 to 1.37 nM; very weak fitted binding. As for the experimental part: as §2
Assay [5] has as its target T1, recombinant extracellular domain (ECD) …. The assay is described as follows: Biacore SPR, antibody covalently immobilized on CM4 chip, PRLR ECD 111 to 1.37 nM.
Assay [6] addresses T2, cynomolgus PRLR ECD. Described as above.

B1: he.06.275-4 (antibody, V domains shown)
VH: QVQLQESGPGLVKPSQTLSLTCTVSGYSITSDYAWNWIRQFPGKGLEWMGYISYSGSTSYNPSLKSRITISRDTSKNQFSLQLNSVTAADTAVYFCARDYGYVFDYWGQGTTLTVSS
VL: DVQITQSPSSLSASPGDRITLTCRASKNIYKYLAWYQEKPGKANKLLIYSGSTLHSGIPSRFSGSGSGTDFTLTISSLQPEDFAMYYCQQHNDYPYTFGQGTKLEIK
notes: Human Engineered
On to B1, for which the Kd in assay [1] is 0.52 nM; with cynomolgus PRLR ECD [2], 1.7 nM; in the assay with murine PRLR ECD [3] it was 17600 nM; in assay [5], 1.3 nM; in the assay with cynomolgus PRLR ECD [6], 6.4 nM. Besides, in the assay with rat PRLR ECD, the binding result was “no binding (tested: PRLR ECD up to 111 nM)”. For the same molecule, the dissociation rate constant (koff) in the assay with murine PRLR ECD [4] is 0.037 s⁻¹. In addition, in the assay with murine PRLR ECD [4], the kon was 2100 M⁻¹ s⁻¹.

In general, Kd refers to the concentration at which binding is half-saturated. One may read the koff as the first-order rate constant of dissociation. A low value points to slow dissociation. One may read the kon as the second-order rate constant of association. A higher kon goes with fast association.

The values above are taken from patent publication US20080292620A1 (Novartis, published 2008).
